# Test results reported in IntAct's records for PubMed 26853155.
# B1: Syncytin-2 (Homo sapiens), P60508 (parent)
# chain: MGLLLLVLILTPSLAAYRHPDFPLLEKAQQLLQSTGSPYSTNCWLCTSSSTETPGTAYPASPREWTSIEAELHISYRWDPNLKGLMRPANSLLSTVKQDFPDIRQKPPIFGPIFTNINLMGIAPICVMAKRKNGTNVGTLPSTVCNVTFTVDSNQQTYQTYTHNQFRHQPRFPKPPNITFPQGTLLDKSSRFCQGRPSSCSTRNFWFRPADYNQCLQISNLSSTAEWVLLDQTRNSLFWENKTKGANQSQTPCVQVLAGMTIATSYLGISAVSEFFGTSLTPLFHFHISTCLKTQGAFYICGQSIHQCLPSNWTGTCTIGYVTPDIFIAPGNLSLPIPIYGNSPLPRVRRAIHFIPLLAGLGILAGTGTGIAGITKASLTYSQLSKEIANNIDTMAKALTTMQEQIDSLAAVVLQNRRGLDMLTAAQGGICLALDEKCCFWVNQSGKVQDNIRQLLNQASSLRERATQGWLNWEGTWKWFSWVLPLTGPLVSLLLLLLFGPCLLNLITQFVSSRLQAIKLQTNLSAGRHPRNIQESPF
# partner: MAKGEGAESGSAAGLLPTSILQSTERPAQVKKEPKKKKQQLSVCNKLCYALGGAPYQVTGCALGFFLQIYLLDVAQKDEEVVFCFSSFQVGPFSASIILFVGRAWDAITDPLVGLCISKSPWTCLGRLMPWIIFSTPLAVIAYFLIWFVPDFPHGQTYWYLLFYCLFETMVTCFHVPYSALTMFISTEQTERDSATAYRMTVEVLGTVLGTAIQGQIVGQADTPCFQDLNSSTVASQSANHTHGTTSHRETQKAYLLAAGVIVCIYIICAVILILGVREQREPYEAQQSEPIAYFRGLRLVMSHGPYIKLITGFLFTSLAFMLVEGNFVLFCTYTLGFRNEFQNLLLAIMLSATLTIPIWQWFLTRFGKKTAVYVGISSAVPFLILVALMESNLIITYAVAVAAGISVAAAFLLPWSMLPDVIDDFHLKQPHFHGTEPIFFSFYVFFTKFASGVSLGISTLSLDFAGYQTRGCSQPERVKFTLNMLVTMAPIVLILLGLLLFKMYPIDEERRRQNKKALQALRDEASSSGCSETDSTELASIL
# Variants of: B1
# Details: with nls1_human MFSD2A
row,Variant,effect of a mutation on the interaction
1,V483I,decreasing interaction strength
2,T367M,disrupting interaction strength
3,T522M,decreasing interaction strength
4,C46R,decreasing interaction strength
5,N312Q,decreasing interaction strength
6,N118S,increasing interaction strength
7,R417H,decreasing interaction strength
8,N443Q,disrupting interaction strength
9,N332Q,decreasing interaction strength
10,N133Q,decreasing interaction strength
